Measurements: US20110300138A1 (published 2011)
Where two headings read alike, the source gives them in different places.

Columns and labels:
[1] = target: human TSH receptor (full length, wild type) expressed in CHO cells (human) (UniProt P16473); assay: cell-based or functional assay
[2] = target: human TSH receptor (full length, wild type) expressed in CHO cells (human) (UniProt P16473); assay: cell-based or functional assay; remark: listed apart in the source
[3] = target: human TSH receptor (full length, wild type) expressed in CHO cells (human) (UniProt P16473); assay: cell-based or functional assay; remark: listed apart in the source
[4] = target: human TSHR (wild type, full length) expressed in CHO cells (human) (UniProt P16473); assay: cell-based or functional assay
[5] = target: human TSHR (wild type, full length) expressed in CHO cells (human) (UniProt P16473); assay: cell-based or functional assay; remark: listed apart in the source
[6] = target: TSHR260-alkaline phosphatase (TSHR260-AP) (human) (UniProt P05187); assay: TSHR260-AP bridge ELISA, full length TSHR on wells; 1 µg/mL, diluted in HBD
[7] = target: TSHR260-alkaline phosphatase (TSHR260-AP) (human) (UniProt P05187); assay: TSHR260-AP bridge ELISA, full length TSHR on wells; 0.5 µg/mL, diluted in HBD
[8] = target: TSHR260-alkaline phosphatase (TSHR260-AP) (human) (UniProt P05187); assay: TSHR260-AP bridge ELISA, full length TSHR on wells; 100 µg/mL, diluted in HBD
[9] = target: TSHR260-alkaline phosphatase (TSHR260-AP) (human) (UniProt P05187); assay: TSHR260-AP bridge ELISA, full length TSHR on wells; 0.01 µg/mL, diluted in HBD
[10] = target: TSHR260-alkaline phosphatase (TSHR260-AP) (human) (UniProt P05187); assay: TSHR260-AP bridge ELISA, full length TSHR on wells; 0.05 µg/mL, diluted in HBD
[11] = target: TSHR260-alkaline phosphatase (TSHR260-AP) (human) (UniProt P05187); assay: TSHR260-AP bridge ELISA, full length TSHR on wells; 10 µg/mL, diluted in assay buffer
[12] = target: TSHR260-alkaline phosphatase (TSHR260-AP) (human) (UniProt P05187); assay: TSHR260-AP bridge ELISA, full length TSHR on wells; 0.01 µg/mL, diluted in assay buffer
[13] = target: TSHR260-alkaline phosphatase (TSHR260-AP) (human) (UniProt P05187); assay: TSHR260-AP bridge ELISA, full length TSHR on wells; 0.05 µg/mL, diluted in assay buffer
TSHR260-AP (human) [14] = assay: TSHR260-AP bridge ELISA (full length TSHR on wells, TSHR260-AP in solution); IgG 0.5 µg/mL diluted in HBD serum
TSHR260-AP (human) [15] = assay: TSHR260-AP bridge ELISA (full length TSHR on wells, TSHR260-AP in solution); IgG 100 µg/mL diluted in HBD serum
TSHR260-AP (human) [16] = assay: TSHR260-AP bridge ELISA (full length TSHR on wells, TSHR260-AP in solution); IgG 250 µg/mL diluted in HBD serum
TSHR260-AP (human) [17] = assay: TSHR260-AP bridge ELISA (full length TSHR on wells, TSHR260-AP in solution); IgG 0.01 µg/mL diluted in HBD serum
TSHR260-AP (human) [18] = assay: TSHR260-AP bridge ELISA (full length TSHR on wells, TSHR260-AP in solution); IgG 1 µg/mL diluted in assay buffer
TSHR260-AP (human) [19] = assay: TSHR260-AP bridge ELISA (full length TSHR on wells, TSHR260-AP in solution); IgG 0.005 µg/mL diluted in HBD serum
TSHR260-AP (human) [20] = assay: TSHR260-AP bridge ELISA (full length TSHR on wells, TSHR260-AP in solution); IgG 0.1 µg/mL diluted in assay buffer
TSHR260-AP (human) [21] = assay: TSHR260-AP bridge ELISA (full length TSHR on wells, TSHR260-AP in solution); IgG 0.5 µg/mL diluted in assay buffer
TSHR260-AP (human) [22] = assay: TSHR260-AP bridge ELISA (full length TSHR on wells, TSHR260-AP in solution); IgG 0.01 µg/mL diluted in assay buffer
TSHR260-AP (human) [23] = assay: TSHR260-AP bridge ELISA (full length TSHR on wells, TSHR260-AP in solution); IgG 0.05 µg/mL diluted in assay buffer
TSHR260-AP (human) [24] = assay: TSHR260-AP bridge ELISA (full length TSHR on wells, TSHR260-AP in solution); IgG 0.005 µg/mL diluted in assay buffer

With 5B3 IgG (antibody) the % Inhibition; T4 serum + 100 µg/mL 5B3 IgG [1] was 30.3%, the % Inhibition; T5 serum + 100 µg/mL 5B3 IgG [1] was 0% and the % Inhibition; T6 serum + 100 µg/mL 5B3 IgG [1] was 1.8%. It also gave a Cyclic AMP concentration; 100 µg/mL 5B3 IgG alone [1] of 2.6 pmol/mL, a Cyclic AMP concentration; HBD + 100 µg/mL 5B3 IgG [1] of 3 pmol/mL and a Cyclic AMP concentration; T4 serum + 100 µg/mL 5B3 IgG [1] of 55 pmol/mL. For the same substance, the Cyclic AMP concentration; T5 serum + 100 µg/mL 5B3 IgG [1] was 66.7 pmol/mL, the Cyclic AMP concentration; T6 serum + 100 µg/mL 5B3 IgG [1] was 81.5 pmol/mL and the % Inhibition; T7 serum + 100 µg/mL 5B3 IgG [2] was 0%. It also gave a % Inhibition; T8 serum + 100 µg/mL 5B3 IgG [2] of 10.9%, a % Inhibition; T9 serum + 100 µg/mL 5B3 IgG [2] of 0% and a Cyclic AMP concentration; 100 µg/mL 5B3 IgG alone [2] of 2.7 pmol/mL. It also gave a Cyclic AMP concentration; HBD + 100 µg/mL 5B3 IgG [2] of 4 pmol/mL, a Cyclic AMP concentration; T7 serum + 100 µg/mL 5B3 IgG [2] of 91.9 pmol/mL and a Cyclic AMP concentration; T8 serum + 100 µg/mL 5B3 IgG [2] of 76.3 pmol/mL. It also gave a Cyclic AMP concentration; T9 serum + 100 µg/mL 5B3 IgG [2] of 53.2 pmol/mL, a % Inhibition; T10 serum + 100 µg/mL 5B3 IgG [3] of 0% and a % Inhibition; T11 serum + 100 µg/mL 5B3 IgG [3] of 3.2%. The % Inhibition; T12 serum + 100 µg/mL 5B3 IgG [3] was 0%, the Cyclic AMP concentration; 100 µg/mL 5B3 IgG alone [3] was 2 pmol/mL and the Cyclic AMP concentration; HBD + 100 µg/mL 5B3 IgG [3] was 2.4 pmol/mL. It also gave a Cyclic AMP concentration; T10 serum + 100 µg/mL 5B3 IgG [3] of 59.3 pmol/mL, a Cyclic AMP concentration; T11 serum + 100 µg/mL 5B3 IgG [3] of 39.7 pmol/mL and a Cyclic AMP concentration; T12 serum + 100 µg/mL 5B3 IgG [3] of 43.3 pmol/mL. For the same substance, the % Inhibition of T13 serum stimulation; 100 µg/mL 5B3 IgG [4] was 22.5%, the % Inhibition of T14 serum stimulation; 100 µg/mL 5B3 IgG [4] was 24.6% and the % Inhibition of T15 serum stimulation; 100 µg/mL 5B3 IgG [4] was 18.3%. It also gave a Cyclic AMP concentration; 100 µg/mL 5B3 IgG alone [4] of 4.1 pmol/mL, a Cyclic AMP concentration; HBD + 100 µg/mL 5B3 IgG [4] of 5.1 pmol/mL and a Cyclic AMP concentration; T13 serum + 100 µg/mL 5B3 IgG [4] of 37.6 pmol/mL. The Cyclic AMP concentration; T14 serum + 100 µg/mL 5B3 IgG [4] was 20.5 pmol/mL, the Cyclic AMP concentration; T15 serum + 100 µg/mL 5B3 IgG [4] was 41.9 pmol/mL and the % Inhibition of T8 serum stimulation; 0.1 µg/mL 5B3 IgG [5] was 3%. The % Inhibition of T8 serum stimulation; 1 µg/mL 5B3 IgG [5] was 2%, the % Inhibition of T8 serum stimulation; 10 µg/mL 5B3 IgG [5] was 0% and the % Inhibition of T8 serum stimulation; 100 µg/mL 5B3 IgG [5] was 3%. For the same substance, the Cyclic AMP concentration; 0.1 µg/mL 5B3 IgG + T8 [5] was 50.7 pmol/mL, the Cyclic AMP concentration; 1 µg/mL 5B3 IgG + T8 [5] was 51.4 pmol/mL and the Cyclic AMP concentration; 10 µg/mL 5B3 IgG + T8 [5] was 56 pmol/mL. The Cyclic AMP concentration; 100 µg/mL 5B3 IgG + T8 [5] was 50.5 pmol/mL, the Cyclic AMP concentration; 100 µg/mL 5B3 IgG alone [5] was 2.1 pmol/mL and the Mean absorbance at 405 nm (absorbance at 405 nm) [6] was 0.049. For the same substance, the Mean absorbance at 405 nm (absorbance at 405 nm) [7] was -0.001, the Mean absorbance at 405 nm (absorbance at 405 nm) [8] was 0.003 and the Mean absorbance at 405 nm (absorbance at 405 nm) [9] was 0.027. It also gave a Mean absorbance at 405 nm (absorbance at 405 nm) [10] of -0.006, a Mean absorbance at 405 nm (absorbance at 405 nm) [11] of -0.014 and a Mean absorbance at 405 nm (absorbance at 405 nm) [12] of 0.012. The Mean absorbance at 405 nm (absorbance at 405 nm) [13] was -0.009, the Mean absorbance at 405 nm (absorbance at 405 nm) (TSHR260-AP (human) [14]) was -0.001 and the Mean absorbance at 405 nm (absorbance at 405 nm) (TSHR260-AP (human) [15]) was 0.003. The Mean absorbance at 405 nm (absorbance at 405 nm) (TSHR260-AP (human) [16]) was 0.012, the Mean absorbance at 405 nm (absorbance at 405 nm) (TSHR260-AP (human) [17]) was 0.027 and the Mean absorbance at 405 nm (absorbance at 405 nm) (TSHR260-AP (human) [18]) was -0.004. The Mean absorbance at 405 nm (absorbance at 405 nm) (TSHR260-AP (human) [19]) was -0.002, the Mean absorbance at 405 nm (absorbance at 405 nm) (TSHR260-AP (human) [20]) was -0.013 and the Mean absorbance at 405 nm (absorbance at 405 nm) (TSHR260-AP (human) [21]) was -0.006. For the same substance, the Mean absorbance at 405 nm (absorbance at 405 nm) (TSHR260-AP (human) [22]) was 0.012, the Mean absorbance at 405 nm (absorbance at 405 nm) (TSHR260-AP (human) [23]) was -0.009 and the Mean absorbance at 405 nm (absorbance at 405 nm) (TSHR260-AP (human) [24]) was -0.012.
